The target in one test is T1, beta-catenin (Homo sapiens (Human), UniProt P35222 1-781).
T1 construct: The FP protocol says full-length beta-Catenin (Uniprot ID P35222); also called full-length beta-Catenin; bCat
T1 sequence: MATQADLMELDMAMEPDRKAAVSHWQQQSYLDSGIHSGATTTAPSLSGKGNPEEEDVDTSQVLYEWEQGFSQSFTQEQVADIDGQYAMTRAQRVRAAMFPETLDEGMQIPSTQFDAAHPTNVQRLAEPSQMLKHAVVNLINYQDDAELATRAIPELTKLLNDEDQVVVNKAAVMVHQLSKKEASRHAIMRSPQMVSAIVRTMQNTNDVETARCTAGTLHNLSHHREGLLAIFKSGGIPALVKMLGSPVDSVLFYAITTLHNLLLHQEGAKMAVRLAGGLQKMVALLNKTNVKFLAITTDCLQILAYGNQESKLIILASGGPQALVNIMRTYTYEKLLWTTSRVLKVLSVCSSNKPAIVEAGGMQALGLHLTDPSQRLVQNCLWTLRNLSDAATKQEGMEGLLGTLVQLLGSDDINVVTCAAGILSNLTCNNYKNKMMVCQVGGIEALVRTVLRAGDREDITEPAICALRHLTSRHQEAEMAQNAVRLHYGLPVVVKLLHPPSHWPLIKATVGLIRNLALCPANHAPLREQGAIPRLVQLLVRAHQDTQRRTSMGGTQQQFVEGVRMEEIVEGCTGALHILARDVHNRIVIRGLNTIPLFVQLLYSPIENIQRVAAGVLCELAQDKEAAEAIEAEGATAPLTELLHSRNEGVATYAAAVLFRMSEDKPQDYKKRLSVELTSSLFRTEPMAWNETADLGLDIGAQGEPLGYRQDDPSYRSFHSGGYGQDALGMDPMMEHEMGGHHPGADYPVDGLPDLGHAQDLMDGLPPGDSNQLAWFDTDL
The test can be described thus: fluorescence polarization competition; full-length beta-catenin with 5FAM-TCF4(10-53) probe as competitor. Summed up: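 Incubate 60 minutes at 20° C. away from light, then read polarization in duplicate. Fit to 1:1 binding with hill slope.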
(Fluorescence polarisation rises when a labelled molecule tumbles more slowly, as on binding a larger partner.)

In test [1] the target is T2, full-length beta-Catenin (Uniprot ID P35222) (Homo sapiens (Human), UniProt P35222 1-781).
T2 construct: also called bCat; B-Catenin
T2 sequence: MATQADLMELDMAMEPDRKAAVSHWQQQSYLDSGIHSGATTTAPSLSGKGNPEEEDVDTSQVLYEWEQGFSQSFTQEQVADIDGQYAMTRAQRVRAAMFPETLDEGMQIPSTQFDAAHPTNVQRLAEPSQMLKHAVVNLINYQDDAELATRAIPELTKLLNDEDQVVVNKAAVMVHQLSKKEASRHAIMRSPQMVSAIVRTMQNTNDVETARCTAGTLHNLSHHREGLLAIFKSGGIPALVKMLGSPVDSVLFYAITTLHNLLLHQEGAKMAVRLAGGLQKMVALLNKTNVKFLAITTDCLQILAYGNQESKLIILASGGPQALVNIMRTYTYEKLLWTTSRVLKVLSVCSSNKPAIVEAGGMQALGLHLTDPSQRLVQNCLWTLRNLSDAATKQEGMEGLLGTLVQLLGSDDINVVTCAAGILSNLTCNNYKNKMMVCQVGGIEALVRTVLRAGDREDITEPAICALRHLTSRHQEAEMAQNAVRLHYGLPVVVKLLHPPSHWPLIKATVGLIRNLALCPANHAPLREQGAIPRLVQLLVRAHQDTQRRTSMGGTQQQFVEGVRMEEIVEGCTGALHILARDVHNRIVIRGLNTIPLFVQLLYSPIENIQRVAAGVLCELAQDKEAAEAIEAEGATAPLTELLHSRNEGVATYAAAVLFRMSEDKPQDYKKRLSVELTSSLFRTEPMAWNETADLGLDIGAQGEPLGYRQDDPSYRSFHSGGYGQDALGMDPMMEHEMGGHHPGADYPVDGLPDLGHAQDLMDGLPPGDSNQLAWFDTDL
Nature of the test: fluorescence polarization competition; peptide titrated against 10 nM full-length beta-catenin + 10 nM 5FAM-TCF4(10-53). As for the experimental part:
(§1) The plate was incubated protected from light for 60 minutes at 20° C. prior to read. Reads were performed on a CLARIOstar plate reader (BMG Labtech) in duplicate, and data were fitted to a 1:1 binding model with hill slope using an in-house script. All provided concentrations are final concentrations.

For the next test, the target named is T3, B-cat-Halo (UniProt P35222 1-781).
T3 sequence (looked up): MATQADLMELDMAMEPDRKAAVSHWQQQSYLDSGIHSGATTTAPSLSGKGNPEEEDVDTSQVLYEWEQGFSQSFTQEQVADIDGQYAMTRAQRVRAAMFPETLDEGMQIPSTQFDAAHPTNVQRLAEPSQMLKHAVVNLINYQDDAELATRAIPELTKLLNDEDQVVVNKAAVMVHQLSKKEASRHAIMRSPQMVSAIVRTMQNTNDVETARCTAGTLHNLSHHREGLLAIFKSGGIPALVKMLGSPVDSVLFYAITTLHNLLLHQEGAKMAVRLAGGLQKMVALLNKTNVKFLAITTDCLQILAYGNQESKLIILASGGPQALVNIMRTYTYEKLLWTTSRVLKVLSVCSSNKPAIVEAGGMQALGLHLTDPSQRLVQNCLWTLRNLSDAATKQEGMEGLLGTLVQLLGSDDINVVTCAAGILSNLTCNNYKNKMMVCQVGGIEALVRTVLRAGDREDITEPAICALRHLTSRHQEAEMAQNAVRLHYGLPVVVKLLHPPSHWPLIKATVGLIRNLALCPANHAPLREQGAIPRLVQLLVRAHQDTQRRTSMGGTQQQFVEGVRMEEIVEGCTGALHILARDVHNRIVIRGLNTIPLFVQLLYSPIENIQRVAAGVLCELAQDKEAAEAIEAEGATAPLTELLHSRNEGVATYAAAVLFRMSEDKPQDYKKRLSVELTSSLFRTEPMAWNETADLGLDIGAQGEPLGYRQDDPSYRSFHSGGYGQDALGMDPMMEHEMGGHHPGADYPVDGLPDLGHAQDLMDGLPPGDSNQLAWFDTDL
The test can be described thus: cell-based or functional assay.

Test [2] has as its target T4, full-length beta-Catenin (Uniprot ID P35222) (Homo sapiens (Human), UniProt P35222 1-781).
T4 construct: Tags are not described; Also used here as the target of the DLD1 TCF reporter read-out (endogenous beta-catenin in DLD1 cells); also called bCat; B-Catenin
T4 sequence: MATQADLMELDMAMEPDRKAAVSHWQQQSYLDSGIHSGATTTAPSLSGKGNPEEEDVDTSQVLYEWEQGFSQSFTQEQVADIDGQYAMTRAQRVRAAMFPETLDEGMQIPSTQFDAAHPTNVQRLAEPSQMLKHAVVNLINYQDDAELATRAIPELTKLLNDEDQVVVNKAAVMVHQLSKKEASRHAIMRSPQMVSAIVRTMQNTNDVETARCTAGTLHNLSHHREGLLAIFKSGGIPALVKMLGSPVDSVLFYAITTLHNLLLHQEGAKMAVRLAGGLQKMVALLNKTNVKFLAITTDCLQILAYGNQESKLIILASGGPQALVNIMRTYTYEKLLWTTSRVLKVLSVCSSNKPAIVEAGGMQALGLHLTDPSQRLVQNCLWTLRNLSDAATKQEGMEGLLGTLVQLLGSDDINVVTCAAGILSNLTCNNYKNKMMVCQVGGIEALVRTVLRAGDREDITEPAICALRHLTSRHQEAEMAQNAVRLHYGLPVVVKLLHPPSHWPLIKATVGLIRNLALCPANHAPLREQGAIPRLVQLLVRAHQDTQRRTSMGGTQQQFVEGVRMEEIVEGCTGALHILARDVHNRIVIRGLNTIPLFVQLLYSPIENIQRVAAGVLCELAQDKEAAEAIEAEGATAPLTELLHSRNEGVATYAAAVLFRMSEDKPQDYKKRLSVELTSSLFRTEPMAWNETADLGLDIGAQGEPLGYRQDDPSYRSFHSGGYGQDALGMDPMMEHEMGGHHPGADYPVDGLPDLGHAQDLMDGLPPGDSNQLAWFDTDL
The test can be described thus: fluorescence polarization competition; full-length beta-catenin with 5FAM-TCF4(10-53) probe, peptide titrated. As for the experimental part: as §1

As a reminder, the EC50 is the concentration giving half of the maximal effect. Low readings indicate an effect from little substance, high ones a need for much substance. In general, IC50 refers to the concentration at which inhibition is half-maximal.

Starred links: 1 amine or outer side, 2 acyl side, 3 side chain; linkers in the order of their positions; H or OH if unused. Positions of bridges follow the written chain, without caps; N, C: chain ends. Non-standard residues stand in square brackets, D forms with d. Primed or numbered codes have the meaning given here. PyrS2″ = (S)-3-amino-1-((pent-4-en-1-yloxy)carbonyl)pyrrolidine-3-carboxylic acid (stapling residue), C=CCCCOC(=O)N1CC[C@@](N[*:1])(C(=O)[*:2])C1; B5(16) = 2-amino-2-(pent-4-en-1-yl)hept-6-enoic acid = 2,2-bis(4-pentenyl)glycine (stitching residue), C=CCCCC(CCCC=C)(N[*:1])C(=O)[*:2]; B5(4) = 2,2-bis(4-pentenyl)glycine = 2-amino-2-(pent-4-en-1-yl)hept-6-enoic acid (stitching residue), C=CCCCC(CCCC=C)(N[*:1])C(=O)[*:2]; PyrS2 = (S)-3-amino-1-((pent-4-en-1-yloxy)carbonyl)pyrrolidine-3-carboxylic acid, C=CCCCOC(=O)N1CC[C@@](N[*:1])(C(=O)[*:2])C1; Phe(2-Cl) = N[C@@H](Cc1ccccc1Cl)C(=O)O; Bta = N[C@@H](Cc1csc2ccccc12)C(=O)O; αAllylPro = C=CC[C@@]1(C(=O)O)CCCN1

B1: I-1419 (peptide)
peptide: Ac-[αAllylPro]DL[B5(4)]DDAAFL[PyrS2″][Phe(2-Cl)][Bta]L-NH2
modifications: staple 1-4, 4-11; also: staple isomer composition of later HPLC peak
notes: stapled peptide
In turn, B1 came in with an EC50 in the test with beta-catenin of 152 nM.

B2: I-356 (peptide)
peptide: XDAXDDAAFVXAWQ
modifications: not fully specified; N-terminal Ac; PL3 at 1, B5 at 4, S8 at 11 (staples 1-4 and 4-11 by olefin metathesis); C-terminal NH2
notes: Stapled peptide; also called Ac-PL3-Asp-Ala-B5-Asp-Asp-Ala-Ala-Phe-Val-S8-Ala-Trp-Gln-NH2
As for B2, the IC50 in test [1] is 5000 nM.

B3: I-1041 (peptide)
peptide: Ac-[αAllylPro]DF[B5(16)]DDAAFN[PyrS2″][Phe(2-Cl)][Bta]Q-NH2
modifications: staple 1-4, 4-11
notes: also called Ac-PL3-Asp-Phe-B5-Asp-Asp-Ala-Ala-Phe-Asn-PyrS2-2C1F-BztA-Gln-NH2
For B3, the “NanoBRET Abs IC50” value with B-cat-Halo is > 20000 nM. The IC50 in test [2] is 8 nM.

B4: I-1049 (peptide)
peptide: Ac-[αAllylPro]DF[B5(4)]DDAAFT[PyrS2″][Phe(2-Cl)][Bta]S-NH2
modifications: staple 1-4, 4-11
notes: also called Ac-PL3-Asp-Phe-B5-Asp-Asp-Ala-Ala-Phe-Thr-PyrS2-2C1F-BztA-Ser-NH2
The molecule B4 displayed an IC50 in test [2] of 6 nM.

B5: I-1043 (peptide)
peptide: Ac-[αAllylPro]DF[B5(16)]DDAAFT[PyrS2″][Phe(2-Cl)][Bta]Q-NH2
modifications: staple 1-4, 4-11
notes: also called Ac-PL3-Asp-Phe-B5-Asp-Asp-Ala-Ala-Phe-Thr-PyrS2-2C1F-BztA-Gln-NH2
For B5, in the test with B-cat-Halo, the “NanoBRET Abs IC50” value is > 20000 nM. Further, the IC50 in test [2] was 12 nM.

B6: I-1051 (peptide)
peptide: Ac-[αAllylPro]DF[B5(4)]DDAAFS[PyrS2][Phe(2-Cl)][Bta]S-NH2
modifications: staple 1-4, 4-11
notes: also called Ac-PL3-Asp-Phe-B5-Asp-Asp-Ala-Ala-Phe-Ser-PyrS2-2C1F-BztA-Ser-NH2
On to B6, for which the “NanoBRET Abs IC50” value in the test with B-cat-Halo was > 20000 nM. The molecule further had an IC50 in test [2] of 14 nM.

These data come from US20240116985A1 (published 2024).
